Measured values from US11162087B2, “Beta-glucosidase, enzyme composition including same, and method for manufacturing sugar solution using same” (RIKEN, priority 2017, dated 2021).

B1: Comparative Example 1: β-glucosidase derived from the genus Aspergillus filamentous fungus: Aspergillus β-glucosidase (SEQ ID NO: 10) expressed in Trichoderma reesei; measured as enzyme composition … (protein, listed as Aspergillus aculeatus)
chain: DELAFSPPFYPSPWANGQGEWAEAYQRAVAIVSQMTLDEKVNLTTGTGWELEKCVGQTGGVPRLNIGGMCLQDSPLGIRDSDYNSAFPAGVNVAATWDKNLAYLRGQAMGQEFSDKGIDVQLGPAAGPLGRSPDGGRNWEGFSPDPALTGVLFAETIKGIQDAGVVATAKHYILNEQEHFRQVAEAAGYGFNISDTISSNVDDKTIHEMYLWPFADAVRAGVGAIMCSYNQINNSYGCQNSYTLNKLLKAELGFQGFVMSDWGAHHSGVGSALAGLDMSMPGDITFDSATSFWGTNLTIAVLNGTVPQWRVDDMAVRIMAAYYKVGRDRLYQPPNFSSWTRDEYGFKYFYPQEGPYEKVNHFVNVQRNHSEVIRKLGADSTVLLKNNNALPLTGKERKVAILGEDAGSNSYGANGCSDRGCDNGTLAMAWGSGTAEFPYLVTPEQAIQAEVLKHKGSVYAITDNWALSQVETLAKQASVSLVFVNSDAGEGYISVDGNEGDRNNLTLWKNGDNLIKAAANNCNNTIVVIHSVGPVLVDEWYDHPNVTAILWAGLPGQESGNSLADVLYGRVNPGAKSPFTWGKTREAYGDYLVRELNNGNGAPQDDFSEGVFIDYRGFDKRNETPIYEFGHGLSYTTFNYSGLHIQVLNASSNAQVATETGAAPTFGQVGNASDYVYPEGLTRISKFIYPWLNSTDLKASSGDPYYGVDTAEHVPEGATDGSPQPVLPAGGGSGGNPRLYDELIRVSVTVKNTGRVAGDAVPQLYVSLGGPNEPKVVLRKFDRLTLKPSEETVWTTTLTRRDLSNWDVAAQDWVITSYPKKVHVGSSSRQLPLHAALPKVQ
notes: measured as enzyme composition with Trichoderma cellulase
B2: partially purified β-glucosidase: His-tag purified elution fraction of SEQ ID NO: 1 β-glucosidase from E. coli cell-free extract, buffer exchanged (Example 7) (protein, listed as Pseudotrichonympha grassii)
chain: QIEGLINVMTLEEKVGQMAQLAIDLFIDVPTDTVIPEAARKGIIDYKIGSILNTYGGVSHSKEVWTYINAEFYKYTEETDLKIPILYGLDSIHGANFVNNFTSFPQQIGMAATFNPSLLKEGSRISAYETRAASVGWVFSPVMDLGLDPRWPRIWEGFGEDPYLSSQFGIASVHGFQGKDPNLIDEFHVAACAKHYLAYSNPFTGKDRTPAILSDIFIREYHLPSFKAAVDAGVASVMVNSGLINGIPTHMNHYLLTTVLKEELGFQGVIVTDWQDIENIHTRDHLAPTQKDAVKLAINAGIDMSMIPYNYDFIDYLIELVHEGEVSIDRINDAVRRILKMKAKMNLWDLPVTKSEDYPEFGSEAHANASYTAASESITLLKNENSTLPLAKNTKVLVVGPNSNSHRSLNGGWSYSWQGNAGVQYAVQYNTIYQAIQKVNGEENTVFSQGVRYIETGNYYEDEEVNISESVALARDVDYIILALGENTYTEKPGDLSDLEISQNQIDLAKALASTGKPIILVLNQGRPRIISRIEQLVSAILWIYWPGNYGGDALADILFGDVNPSGKLPVTYPRYSASLITYWHKYAEEQVGQPGAYDYSSDYNPLWEFGYGLSYTTFNYSNLSVPSTSGMRDVIPVSVLVKNTGEVAGKEVVLLFTSDLYASLAPDVKRLRKFTKILLQPGEEQLVSFNLTSSDLSFIDAQSRRVTETGDFEIKIGGLKGKVTLT
modifications: His-tag
B3: β-glucosidase of the present invention (SEQ ID NO: 1): Polypeptide of SEQ ID NO: 1 from Pseudotrichonympha grassii; in Tables 12/13 measured as the Example 10 composition with Trichoderma cellulase (protein, listed as Pseudotrichonympha grassii)
chain: B2 chain
B4: Mutant 1: His-tagged polypeptide of SEQ ID NO: 6, 88% identity with SEQ ID NO: 1; tested as cell-free extract of transformed E. coli (protein)
chain: QIEGLINVMTLEEKVGQMAQLAIDLFIDVPTDTVIPEAARKGIIDYKIGSILNTYGGVSHSKEVWTYINAEFYKYTEETDLKIPILYGLDSIHGANFVNNFTSFPQQIGMAATFNPSLLKEGSRISAYETRAASVGWVFSPVMDLGLDPRWPRIWEGFGEDPYLSSQFGIASVHGFQGKDPNLIDEFHVAACAKHYLAYSNPFTGKDRTPAILSDIFIREYHLPSFKAAVDAGVASVMVNSGLINGIPTHMNHYLLTTVLKEELGFQGVIVTDWQDIENIHTRDHLAPTQKDAVKLAINAGIDMSMIPYNYDFIDYLIELVHEGEVSIDRINDAVRRILKMKAKMNLWDLPVTKSEDYPEFGSEAHANASYTAASESITLLKNENSTLPLAKNTKVLVVGPNSNSHRSLNGGWSYSWQGNAGVQYAVQYNTIYQAIQKVNGEENTVFSQGVRYIETGNYYEDEEVNISESVALARDVDYIILALGENTYTEKPGDLSDLEISQNQIDLAKALASTGKPIILVLNQGRPRIISRIEQLVSAILWIYWPGNYGGDALADILFGDVNPSGKLPVTYPRYSASLNTRIVSGGSDSFSEGLFIDYKHFDDANITPRYEFGYGLSYTKFNYSRLSVLSTAKSGPATGAVVPGGPSDLFQNVATVTVDIANSGQVTGAEVAQLYITYPSSAPRTPPKQLRGFAKLNLTPGQSGTATFNIRRRDLSYWDTASQKWVVPSGSFGISVGASSRDIRLTSTLSVA
modifications: His tag; amino acid sequence having 88% sequence identity with amino acid sequence of SEQ ID NO 1
notes: tested as cell-free extract of transformed E. coli

Legend:
[1] = Inhibitory action of glucose on the β-glucosidase activity; format: biochemical; conditions: 1 mM pNP-Glc, 30° C., 100 minutes
Excerpt: The β-glucosidase derived from a protist of the genus Pseudotrichonympha of the present invention is preferably less likely to suffer from inhibition by glucose on the 3-glucosidase activity. Specifically, when the β-glucosidase activity in the absence of glucose is taken unity, the β-glucosidase activity under a condition of a glucose concentration of 8 g/L (or in the presence of 8 g/L glucose) is preferably 0.5 or more, more preferably 0.6 or more, more preferably 0.7 or more, more preferably 0.8 or more, more preferably 0.9 or more, more preferably 1.0 or more, more preferably 1.1 or more, more preferably 1.2 or more, more preferably 1.3 or more, and in particular preferably 1.4 or more. Further, in addition to the β-glucosidase activity under the condition of the glucose concentration of 8 g/L, when the β-glucosidase activity in the absence of glucose is taken as unity, the β-glucosidase activity under a condition of a glucose concentration of 20 g/L (or in the presence of 20 g/L glucose) is preferably 0.5 or more, more preferably 0.6 or more, and in particular preferably 0.7 or more. The method used herein for measuring the β-glucosidase activity is the same as the above-described method except that 8 g/L or 20 g/L of glucose is added at the time of measuring; and results obtained thereby are used.
An enzyme solution was added to a mixture solution containing 1 mM p-nitrophenyl-β-glucopyranoside (manufactured by Sigma-Aldrich Japan), 50 mM acetic acid buffer and 0, 4, 8 or 20 g/L glucose such that the total amount of the reaction solution became 100 μL, causing a reaction at 30° C. for 100 minutes. Thereafter, 10 μL of 2M sodium carbonate was added and well mixed to stop the reaction, and an increase of absorbance at 405 nm was measured. The activity to release 1 μmol of p-nitrophenol per minute was defined as 1 U. For a blank, 10 μL of 2M sodium carbonate was added to an amount, equivalent to that of the above mixture solution for the reaction solution before addition of the enzyme solution, of a mixture solution containing 1 mM p-nitrophenyl-β-glucopyranoside, 50 mM sodium acetate buffer and 0, 4, 8 or 20 g/L glucose, and mixed well; and then, the enzyme solution was added such that the total solution amount of the blank became 110 μL, causing a reaction at 30° C. for 30 minutes. Thereafter, an increase of absorbance at 405 nm was measured.
In accordance with Reference Example 8, the inhibitory action of glucose on the β-glucosidase activity was measured in enzyme compositions: containing the β-glucosidase and the genus Trichoderma filamentous fungus-derived cellulase prepared in Example 10; and the cell-free extract of β-glucosidase mutant gene transformed E. coli prepared in Example 5. For a comparative control, only the genus Trichoderma filamentous fungus-derived cellulase was used, and the inhibitory action of glucose on the β-glucosidase activity was measured in the same manner. […] That is, both of the enzyme composition containing the β-glucosidase of the present invention and the genus Trichoderma filamentous fungus-derived cellulase, and the cell-free extract of β-glucosidase mutant gene transformed E. coli were less likely to suffer from inhibition on the β-glucosidase activity by glucose, compared to only the genus Trichoderma filamentous fungus-derived cellulase, and the enzyme composition of Comparative Example 1 containing the genus Aspergillus filamentous fungus-derived β-glucosidase and the genus Trichoderma filamentous fungus-derived cellulase.

[2] = β-glucosidase activity measurement with pNP-Glc; format: biochemical
Procedure: In the present invention, “β-glucosidase” means an enzyme that catalyzes a reaction for hydrolysis degradation of a sugar β-glucoside bond. In the present invention, a method for measuring a β-glucosidase activity utilizes a reaction using p-nitrophenyl-β-D-glucopyranoside (pNP-Glc) as a substrate. Specifically, an enzyme liquid is added to a substrate solution prepared by dissolving pNP-Glc in 50 mM acetic acid-sodium acetate buffer solution (pH 5.0) and reacted at 30° C. for 10 minutes; and the reaction is stopped by well mixing with 2M sodium carbonate in an amount equivalent to one-tenth of a reaction system volume to measure an increase of the absorbance at 405 nm. When p-nitrophenol is released and the absorbance at 405 nm is increased after the above reaction, it is determined that the β-glucosidase activity is present.
10 μL of an enzyme diluted solution was added to and reacted with 90 μL of 50 mM acetic acid buffer containing 1 mM p-nitrophenyl-β-glucopyranoside (manufactured by Sigma-Aldrich Japan) at 30° C. for 10 minutes. Thereafter, 10 μL of 2M sodium carbonate was added and well mixed to stop the reaction, and an increase of absorbance at 405 nm was measured. The activity to release 1 μmol of p-nitrophenol per minute was defined as 1 U. For a blank, 10 μL of 2M sodium carbonate was added to and well mixed with 90 μL of 50 mM sodium acetate buffer containing 1 mM p-nitrophenyl-β-glucopyranoside, and thereafter, 10 μL of an enzyme diluted solution was added to cause a reaction at 30° C. for 30 minutes. Thereafter, an increase of absorbance at 405 nm was measured. At this time, the enzyme liquid was diluted so as not to exceed an absorbance at 405 nm of 1. In addition, a calibration curve was created based on absorbances measured by preparing p-nitrophenol solutions at concentrations of 0.1 mM, 0.2 mM, 1 mM and 2 mM; using 10 μL of them instead of an enzyme diluted solution; and adding and well mixing 10 μL of 2M sodium carbonate for color development.

| Molecule | BGL activity (relative value) in the presence of 8 g/L glucose when BGL activity in the absence of glucose is taken as unity [1] | BGL activity (relative value) in the presence of 20 g/L glucose when BGL activity in the absence of glucose is taken as unity [1] | β-glucosidase activity per 1 mg of protein ([2]; 1 mM pNP-Glc, 50 mM acetic acid buffer, 30° C., 10 minutes, 1 U = 1 μmol p-nitrophenol per minute) | Increase of absorbance (405 nm) ([2]; cell-free extract, volume reduced to one-twelfth by ultrafilter membrane, detection limit 0.075) |
| --- | --- | --- | --- | --- |
| B1 | 0.46 | 0.20 |  |  |
| B2 |  |  | 3.50 U per 1 mg of protein |  |
| B3 | 1.49 | 0.94 |  |  |
| B4 | 0.71 | 0.70 |  | 0.307 |
